This experiment has as its target T1, cyclo[RGDfK] cell adhesive peptide, surface-bound, light-activated from c[RGD(DMNPB)fK].
T1 chain: RGDFK
In words: QCM-D; cells (3 × 10^5 cells/ml) injected over a gold-coated quartz crystal carrying a c[RGD(DMNPB)fK]-terminated PEG-thiol SAM, sedimented in stopped flow, peptide activated in situ by LED (360 nm, 1.35 mW cm^-2, 30 s); Δf1 = frequency drop within the first minute after irradiation; 37°C, PBS; also with 10 μM cytochalasin D or 10 μM anti-αVβ3 antibody. The note with it: remark: other sources report otherwise.

B1: integrin αVβ3 on human umbilical vein endothelial cells (HUVEC), P06756 31-1048; P05106 27-788 (receptor)
chain 1: FNLDVDSPAEYSGPEGSYFGFAVDFFVPSASSRMFLLVGAPKANTTQPGIVEGGQVLKCDWSSTRRCQPIEFDATGNRDYAKDDPLEFKSHQWFGASVRSKQDKILACAPLYHWRTEMKQEREPVGTCFLQDGTKTVEYAPCRSQDIDADGQGFCQGGFSIDFTKADRVLLGGPGSFYWQGQLISDQVAEIVSKYDPNVYSIKYNNQLATRTAQAIFDDSYLGYSVAVGDFNGDGIDDFVSGVPRAARTLGMVYIYDGKNMSSLYNFTGEQMAAYFGFSVAATDINGDDYADVFIGAPLFMDRGSDGKLQEVGQVSVSLQRASGDFQTTKLNGFEVFARFGSAIAPLGDLDQDGFNDIAIAAPYGGEDKKGIVYIFNGRSTGLNAVPSQILEGQWAARSMPPSFGYSMKGATDIDKNGYPDLIVGAFGVDRAILYRARPVITVNAGLEVYPSILNQDNKTCSLPGTALKVSCFNVRFCLKADGKGVLPRKLNFQVELLLDKLKQKGAIRRALFLYSRSPSHSKNMTISRGGLMQCEELIAYLRDESEFRDKLTPITIFMEYRLDYRTAADTTGLQPILNQFTPANISRQAHILLDCGEDNVCKPKLEVSVDSDQKKIYIGDDNPLTLIVKAQNQGEGAYEAELIVSIPLQADFIGVVRNNEALARLSCAFKTENQTRQVVCDLGNPMKAGTQLLAGLRFSVHQQSEMDTSVKFDLQIQSSNLFDKVSPVVSHKVDLAVLAAVEIRGVSSPDHVFLPIPNWEHKENPETEEDVGPVVQHIYELRNNGPSSFSKAMLHLQWPYKYNNNTLLYILHYDIDGPMNCTSDMEINPLRIKISSLQTTEKNDTVAGQGERDHLITKRDLALSEGDIHTLGCGVAQCLKIVCQVGRLDRGKSAILYVKSLLWTETFMNKENQNHSYSLKSSASFNVIEFPYKNLPIEDITNSTLVTTNVTWGIQPAPMPVPVWVIILAVLAGLLLLAVLVFVMYRMGFFKRVRPPQEEQEREQLQPHENGEGNSET
chain 2: GPNICTTRGVSSCQQCLAVSPMCAWCSDEALPLGSPRCDLKENLLKDNCAPESIEFPVSEARVLEDRPLSDKGSGDSSQVTQVSPQRIALRLRPDDSKNFSIQVRQVEDYPVDIYYLMDLSYSMKDDLWSIQNLGTKLATQMRKLTSNLRIGFGAFVDKPVSPYMYISPPEALENPCYDMKTTCLPMFGYKHVLTLTDQVTRFNEEVKKQSVSRNRDAPEGGFDAIMQATVCDEKIGWRNDASHLLVFTTDAKTHIALDGRLAGIVQPNDGQCHVGSDNHYSASTTMDYPSLGLMTEKLSQKNINLIFAVTENVVNLYQNYSELIPGTTVGVLSMDSSNVLQLIVDAYGKIRSKVELEVRDLPEELSLSFNATCLNNEVIPGLKSCMGLKIGDTVSFSIEAKVRGCPQEKEKSFTIKPVGFKDSLIVQVTFDCDCACQAQAEPNSHRCNNGNGTFECGVCRCGPGWLGSQCECSEEDYRPSQQDECSPREGQPVCSQRGECLCGQCVCHSSDFGKITGKYCECDDFSCVRYKGEMCSGHGQCSCGDCLCDSDWTGYYCNCTTRTDTCMSSNGLLCSGRGKCECGSCVCIQPGSYGDTCEKCPTCPDACTFKKECVECKKFDRGALHDENTCNRYCRDEIESVKELKDTGKDAVNCTYKNEDDCVVRFQYYEDSSGKSILYVVEEPECPKGPDILVVLLSVMGAILLIGLAALLIWKLLITIHDRKEFAKFEEERARAKWDTANNPLYKEATSTFTNITYRGT
modifications: here or on the partner: cyclic peptide (cyclo); f = D-phenylalanine
B1 gave a Δf1 of 0.966 Hz.

B2: integrin αVβ3 on stable OV-MZ-6 cell transfectants overexpressing integrin αVβ3, P06756 31-1048; P05106 27-788 (receptor)
chain 1: FNLDVDSPAEYSGPEGSYFGFAVDFFVPSASSRMFLLVGAPKANTTQPGIVEGGQVLKCDWSSTRRCQPIEFDATGNRDYAKDDPLEFKSHQWFGASVRSKQDKILACAPLYHWRTEMKQEREPVGTCFLQDGTKTVEYAPCRSQDIDADGQGFCQGGFSIDFTKADRVLLGGPGSFYWQGQLISDQVAEIVSKYDPNVYSIKYNNQLATRTAQAIFDDSYLGYSVAVGDFNGDGIDDFVSGVPRAARTLGMVYIYDGKNMSSLYNFTGEQMAAYFGFSVAATDINGDDYADVFIGAPLFMDRGSDGKLQEVGQVSVSLQRASGDFQTTKLNGFEVFARFGSAIAPLGDLDQDGFNDIAIAAPYGGEDKKGIVYIFNGRSTGLNAVPSQILEGQWAARSMPPSFGYSMKGATDIDKNGYPDLIVGAFGVDRAILYRARPVITVNAGLEVYPSILNQDNKTCSLPGTALKVSCFNVRFCLKADGKGVLPRKLNFQVELLLDKLKQKGAIRRALFLYSRSPSHSKNMTISRGGLMQCEELIAYLRDESEFRDKLTPITIFMEYRLDYRTAADTTGLQPILNQFTPANISRQAHILLDCGEDNVCKPKLEVSVDSDQKKIYIGDDNPLTLIVKAQNQGEGAYEAELIVSIPLQADFIGVVRNNEALARLSCAFKTENQTRQVVCDLGNPMKAGTQLLAGLRFSVHQQSEMDTSVKFDLQIQSSNLFDKVSPVVSHKVDLAVLAAVEIRGVSSPDHVFLPIPNWEHKENPETEEDVGPVVQHIYELRNNGPSSFSKAMLHLQWPYKYNNNTLLYILHYDIDGPMNCTSDMEINPLRIKISSLQTTEKNDTVAGQGERDHLITKRDLALSEGDIHTLGCGVAQCLKIVCQVGRLDRGKSAILYVKSLLWTETFMNKENQNHSYSLKSSASFNVIEFPYKNLPIEDITNSTLVTTNVTWGIQPAPMPVPVWVIILAVLAGLLLLAVLVFVMYRMGFFKRVRPPQEEQEREQLQPHENGEGNSET
chain 2: GPNICTTRGVSSCQQCLAVSPMCAWCSDEALPLGSPRCDLKENLLKDNCAPESIEFPVSEARVLEDRPLSDKGSGDSSQVTQVSPQRIALRLRPDDSKNFSIQVRQVEDYPVDIYYLMDLSYSMKDDLWSIQNLGTKLATQMRKLTSNLRIGFGAFVDKPVSPYMYISPPEALENPCYDMKTTCLPMFGYKHVLTLTDQVTRFNEEVKKQSVSRNRDAPEGGFDAIMQATVCDEKIGWRNDASHLLVFTTDAKTHIALDGRLAGIVQPNDGQCHVGSDNHYSASTTMDYPSLGLMTEKLSQKNINLIFAVTENVVNLYQNYSELIPGTTVGVLSMDSSNVLQLIVDAYGKIRSKVELEVRDLPEELSLSFNATCLNNEVIPGLKSCMGLKIGDTVSFSIEAKVRGCPQEKEKSFTIKPVGFKDSLIVQVTFDCDCACQAQAEPNSHRCNNGNGTFECGVCRCGPGWLGSQCECSEEDYRPSQQDECSPREGQPVCSQRGECLCGQCVCHSSDFGKITGKYCECDDFSCVRYKGEMCSGHGQCSCGDCLCDSDWTGYYCNCTTRTDTCMSSNGLLCSGRGKCECGSCVCIQPGSYGDTCEKCPTCPDACTFKKECVECKKFDRGALHDENTCNRYCRDEIESVKELKDTGKDAVNCTYKNEDDCVVRFQYYEDSSGKSILYVVEEPECPKGPDILVVLLSVMGAILLIGLAALLIWKLLITIHDRKEFAKFEEERARAKWDTANNPLYKEATSTFTNITYRGT
modifications: here or on the partner: cyclic peptide (cyclo); f = D-phenylalanine
B2 returned a Δf1 of 0.913 Hz.

Source of the values: article PMC4379501.
